The record followed here is article PMC5376645, “Long-acting protein drugs for the treatment of ocular diseases” (Nature Communications, 2017).

In assay [1] the target is T1, human VEGF-A165 (VEGF homodimer with each monomer having 165 amino acid residues) (Homo sapiens, UniProt P15692-4, strain, biotin (site not stated; named for Supplementary Table 2 only)).
T1 construct: also called hVEGF-A165; hVEGF; source: bought: Peprotech (catalogue number AF-100-20)
The assay can be described thus: SPR; Biacore as per the manufacturer's protocol; kinetic rate constants and affinity of the Fab constructs for biotinylated hVEGF-A165. Conditions: both partners purified. In general terms: SPR reads the build-up and loss of mass on a sensor chip optically.

Assay [2] has as its target T1, human VEGF-A165 (VEGF homodimer with …). The assay can be described thus: inhibition of binding of hVEGF-A165 to hVEGFR2-Fc (luminescence read-out); antibody titrated (pM); binding signal in relative luminescence units; triplicates. Conditions: both partners purified.

T1 sequence (P15692 whole entry, looked up, change not shown): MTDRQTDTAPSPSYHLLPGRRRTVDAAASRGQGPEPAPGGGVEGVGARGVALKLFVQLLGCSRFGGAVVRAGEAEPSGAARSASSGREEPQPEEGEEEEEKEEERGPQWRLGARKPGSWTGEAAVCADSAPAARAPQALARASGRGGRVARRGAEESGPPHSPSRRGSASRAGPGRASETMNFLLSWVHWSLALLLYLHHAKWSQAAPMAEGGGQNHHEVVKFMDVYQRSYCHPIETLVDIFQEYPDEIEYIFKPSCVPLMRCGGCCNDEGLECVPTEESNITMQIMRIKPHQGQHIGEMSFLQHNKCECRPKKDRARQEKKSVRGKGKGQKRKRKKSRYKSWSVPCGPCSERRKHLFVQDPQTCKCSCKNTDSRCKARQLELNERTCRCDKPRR

B1: NVS0, the Fab version of brolucizumab (Fab, V domains shown)
VH: EVQLVESGGGLVQPGGSLRLSCTASGFSLTDYYYMTWVRQAPGKGLEWVGFIDPDDDPYYATWAKGRFTISRDNSKNTLYLQMNSLRAEDTAVYYCAGGDHNSGWGLDIWGQGTLVTVSS
VL: EIVMTQSPSTLSASVGDRVIITCQASEIIHSWLAWYQQKPGKAPKLLIYLASTLASGVPSRFSGSGSGAEFTLTISSLQPDDFATYYCQNVYLASTNGANFGQGTKLTVL
notes: as the Fab part of the heavy chain of Dm4 (LAVA1), without the GSGGG linker and the LINK domain; as the light chain of Dm4 (LAVA1); Made by converting the anti-VEGF scFv brolucizumab to a Fab format; also called untagged anti-VEGF Fab
By Kd is commonly meant a measure of binding affinity in units of concentration. Read a low Kd as tighter binding. The term koff denotes the first-order rate constant of dissociation. Lower therefore signals slow dissociation. Broadly, the kon is the rate constant with which the complex forms. Low values mean slow association, high ones fast association. The term IC50 denotes the concentration that inhibits the measured activity by half. Take B1: in assay [1], the Kd was determined as 0.0142 nM, the koff was determined as 7.87e-05 s⁻¹ and the kon was 5.51e+06 M⁻¹ s⁻¹. Besides, the IC50 in assay [2] came to 0.263 nM.

B2: LAVA45, variant of LAVA1 with an additional disulfide bond in the LINK domain (Fab, V domains shown)
VH: EVQLVESGGGLVQPGGSLRLSCTASGFSLTDYYYMTWVRQAPGKGLEWVGFIDPDDDPYYATWAKGRFTISRDNSKNTLYLQMNSLRAEDTAVYYCAGGDHNSGWGLDIWGQGTLVTVSS
VL: EIVMTQSPSTLSASVGDRVIITCQASEIIHSWLAWYQQKPGKAPKLLIYLASTLASGVPSRFSGSGSGAEFTLTISSLQPDDFATYYCQNVYLASTNGANFGQGTKLTVL
notes: as the Fab part of the heavy chain of Dm4 (LAVA1); linker; TSG6, human, LINK domain (HABP), with cysteine residues introduced for an additional disulfide bond and substitutions at and around the observed digestion sites; as the light chain of Dm4 (LAVA1); The substitutions are in Supplementary Data 2
Turning to B2, in assay [1], the Kd was 0.00307 nM, the koff worked out at 7.21e-05 s⁻¹ and the kon turned out to be 2.35e+07 M⁻¹ s⁻¹.

B3: LAVA24, non-glycosylated variant of LAVA1 (Fab, V domains shown)
VH: EVQLVESGGGLVQPGGSLRLSCTASGFSLTDYYYMTWVRQAPGKGLEWVGFIDPDDDPYYATWAKGRFTISRDNSKNTLYLQMNSLRAEDTAVYYCAGGDHNSGWGLDIWGQGTLVTVSS
VL: EIVMTQSPSTLSASVGDRVIITCQASEIIHSWLAWYQQKPGKAPKLLIYLASTLASGVPSRFSGSGSGAEFTLTISSLQPDDFATYYCQNVYLASTNGANFGQGTKLTVL
notes: as the Fab part of the heavy chain of Dm4 (LAVA1); linker; TSG6, human, LINK domain (HABP), the N-linked glycosylation site deleted by substitution of the asparagine residue; as the light chain of Dm4 (LAVA1); The substitution is in Supplementary Data 2
In assay [1], B3 showed a Kd of 0.00882 nM, a koff of 0.000198 s⁻¹ and a kon of 2.25e+07 M⁻¹ s⁻¹.

B4: LAVA25, non-glycosylated variant of LAVA1 (Fab, V domains shown)
VH: EVQLVESGGGLVQPGGSLRLSCTASGFSLTDYYYMTWVRQAPGKGLEWVGFIDPDDDPYYATWAKGRFTISRDNSKNTLYLQMNSLRAEDTAVYYCAGGDHNSGWGLDIWGQGTLVTVSS
VL: EIVMTQSPSTLSASVGDRVIITCQASEIIHSWLAWYQQKPGKAPKLLIYLASTLASGVPSRFSGSGSGAEFTLTISSLQPDDFATYYCQNVYLASTNGANFGQGTKLTVL
notes: as for B3
With B4, in assay [1], the Kd is 0.0115 nM, the koff worked out at 0.000213 s⁻¹ and the kon was 1.86e+07 M⁻¹ s⁻¹.

B5: LAVA46, variant of LAVA1 with an additional disulfide bond in the LINK domain (Fab, V domains shown)
VH: EVQLVESGGGLVQPGGSLRLSCTASGFSLTDYYYMTWVRQAPGKGLEWVGFIDPDDDPYYATWAKGRFTISRDNSKNTLYLQMNSLRAEDTAVYYCAGGDHNSGWGLDIWGQGTLVTVSS
VL: EIVMTQSPSTLSASVGDRVIITCQASEIIHSWLAWYQQKPGKAPKLLIYLASTLASGVPSRFSGSGSGAEFTLTISSLQPDDFATYYCQNVYLASTNGANFGQGTKLTVL
notes: as for B2
Regarding B5, in assay [1], binding was put at a Kd of 0.00413 nM, the koff is 0.000257 s⁻¹ and the kon is 6.23e+07 M⁻¹ s⁻¹.

B6: brolucizumab, an anti-VEGF scFv (scFv, V domains shown)
VH: EVQLVESGGGLVQPGGSLRLSCTASGFSLTDYYYMTWVRQAPGKGLEWVGFIDPDDDPYYATWAKGRFTISRDNSKNTLYLQMNSLRAEDTAVYYCAGGDHNSGWGLDIWGQGTLVTVSS
VL: EIVMTQSPSTLSASVGDRVIITCQASEIIHSWLAWYQQKPGKAPKLLIYLASTLASGVPSRFSGSGSGAEFTLTISSLQPDDFATYYCQNVYLASTNGANFGQGTKLTVL
notes: NVS0 is the Fab version of this scFv
On to B6, for which the IC50 in assay [2] was 0.248 nM.

B7: LAVA2, protease-resistant variant of LAVA1 (Fab, V domains shown)
VH: EVQLVESGGGLVQPGGSLRLSCTASGFSLTDYYYMTWVRQAPGKGLEWVGFIDPDDDPYYATWAKGRFTISRDNSKNTLYLQMNSLRAEDTAVYYCAGGDHNSGWGLDIWGQGTLVTVSS
VL: EIVMTQSPSTLSASVGDRVIITCQASEIIHSWLAWYQQKPGKAPKLLIYLASTLASGVPSRFSGSGSGAEFTLTISSLQPDDFATYYCQNVYLASTNGANFGQGTKLTVL
notes: as the Fab part of the heavy chain of Dm4 (LAVA1); linker; TSG6, human, LINK domain (HABP), with amino acid substitutions around the observed proteolytic sites; as the light chain of Dm4 (LAVA1); The substitutions are in Supplementary Data 2
In assay [1], B7 had a Kd of 0.00453 nM, a koff of 0.000185 s⁻¹ and a kon of 4.1e+07 M⁻¹ s⁻¹. Besides, the concentration for half-maximal inhibition (IC50) in assay [2] amounted to 0.207 nM.

B8: LAVA1 (NVS24): NVS0 Fab with the LINK domain of human TSG6 fused to the C terminus of the heavy chain (Fab, V domains shown)
VH: EVQLVESGGGLVQPGGSLRLSCTASGFSLTDYYYMTWVRQAPGKGLEWVGFIDPDDDPYYATWAKGRFTISRDNSKNTLYLQMNSLRAEDTAVYYCAGGDHNSGWGLDIWGQGTLVTVSS
VL: EIVMTQSPSTLSASVGDRVIITCQASEIIHSWLAWYQQKPGKAPKLLIYLASTLASGVPSRFSGSGSGAEFTLTISSLQPDDFATYYCQNVYLASTNGANFGQGTKLTVL
notes: Fab heavy chain of NVS0 (from brolucizumab); linker; TSG6 (TNF-stimulated gene 6 protein), human, LINK domain; Fab light chain of NVS0 (from brolucizumab); The LINK domain has a natural N-linked glycosylation site
In assay [1], B8 came in with a Kd of 0.000176 nM, a koff of 1.01e-05 s⁻¹ and a kon of 5.75e+07 M⁻¹ s⁻¹. In addition, in assay [2], the IC50 amounted to 0.28 nM.

B9: LAVA3, protease-resistant variant of LAVA1 (Fab, V domains shown)
VH: EVQLVESGGGLVQPGGSLRLSCTASGFSLTDYYYMTWVRQAPGKGLEWVGFIDPDDDPYYATWAKGRFTISRDNSKNTLYLQMNSLRAEDTAVYYCAGGDHNSGWGLDIWGQGTLVTVSS
VL: EIVMTQSPSTLSASVGDRVIITCQASEIIHSWLAWYQQKPGKAPKLLIYLASTLASGVPSRFSGSGSGAEFTLTISSLQPDDFATYYCQNVYLASTNGANFGQGTKLTVL
notes: as for B7
In assay [1], B9 displayed a Kd of 0.000161 nM, a koff of 1.19e-05 s⁻¹ and a kon of 7.39e+07 M⁻¹ s⁻¹. In addition, the IC50 in assay [2] is 0.301 nM.
